Data from a protein production outcome set (Wang et al. 2014).

Test: label from the status in PepcDB records

Sequence: MKAYTKLLASLVLLSGAYGAPGFANTPELSDKTFRTVNKVQELIATEKYADALSKLNSALSSTSKKQYDRAVLLQQMGFLYSLQDDYPKAAKYFADALSLNALPVPVAQQVRYSLAQLYLAEGQFKKSVATMNEWFKIAETTEEKPQAHAYITLASAYVQLEDYKNAIPPAKQAIAMSKEPSESWYQLLMSAHYELKQFKSVAGVLKILTTKYPKNKRYWTQLSGIYMELNQERNALSTLEMAHKMGLLEGEKEYLRLVNFQAYQGVPFRAAKTLQAAFDNGHVERNAKNLETLGSFWQQAQELEQAIDVYQQAYNLAPQAKTQIKIARLMILDKQYTEATKFTQNAAPDAKHEQKGELSYIRGMAYFELNQPSNALKAMKSAAQSPDMRAMASPWINFLESQG
- protein production: failed

Sequence: MQRPHVQEAEATAAPQQRTGASATFAELLKRVKAEGLLDLDPRYYIGRLALNTTLLLVGFAAFFALGDSWWQLVVALWMGLCGGQSAFMWHDAGHKAMFRSKKAASAVGYFHANLVNGVSFGWWVNHHNRHHSNPNHLDMDPDIGRRTAIFDIKQYPTRRGTQKFIVRYQSVLFFALLVTESFKMLKTAVLSIAQGKTKRPVLESFLLLARAAVYLTLVFTVLSPVLAVAFVLVQQAALGVYFGMIFAPNHKGMEVRDGDEETLDWLERQVLTSRNIRPSLFIDFLYGGLNYQVEHHLFPAMPQKNLARARELTRAYCAERGVPYHEVGFWASYREVASFLHEVSAPVRRGDVEEQIRRQAGQAA
- protein production: failed

Sequence: MTSITPVTLANCEDEPIHVPGAIQPHGALVTLRADGMVLAASENIQALLGFVASPGSYLTQEQVGPEVLRMLEEGLTGNGPWSNSVETRIGEHLFDVIGHSYKEVFYLEFEIRTADTLSITSFTLNAQRIIAQVQLHNDTASLLSNVTDELRRMTGYDRVMAYRFRHDDSGEVVAESRREDLESYLGQRYPASDIPAQARRLYIQNPIRLIADVAYTPMRVFPALNPETNESFDLSYSVLRSVSPIHCEYLTNMGVRASMSISIVVGGKLWGLFSCHHMSPKLIPYPVRMSFQIFSQVCSAIVERLEQGRIAELLRVSTERRLALARRARDADDLFGALAHPDDGIAALIPCDGALVMLGGRTLSIRGDFERQAGNVLQRLQRDPERDIYHTDNWPQPSEDSPDGGDCCGVLAIRFHRQESGWIFWFRHEEVHRIRWGGKPEKLLTIGPSGPRLTPRGSFEAWEEVVRGHSTPWSETDLAIAEKLRLDLMELCLNHAAEVDRMRQRLIAVLGHDLRNPLQSISMAAALLSSSDTRTTELRQHISASSSRMERLVSQILDMSRLQSGIGLTVNPVDTDVSQLVRQIVCETDVAYPGLVIEIAIDPQVRAVVDPDRYAQVAANLLSNARHHGLPGRPVLVTLTRQGDEVCLSVLNETSGLSEAQLANLFEPFKRESADNQRNRNGLGIGLYISQAIAQAHQGRIDVDCRDDVITFCLRLPVRQAETGSSS
- protein production: failed

Sequence: MKEKIPFYNEKEFHYMMKKTKKGTFSGWYIINPENNSVEFSGSFNRQFKLNKPVIPVNTEYVTRKEFNEYKDSNDQRLTKIENKVDKLEIKVDKLEKKVDKLEVKVDKLVETVNAQGEDLNNFKVEVRGTLQSQGETLQLILQTLQGMSKRLDSVEGRLDSMDGRLDSMETRLDKIDPLKLEHHHHHH
- protein production: failed

Sequence: MSDHEVTGGVSLKERVAIVLVEPQSPGNVGMVCRAMKNMGLGELRIVKGCRLDHPEALKFAVSARDLLERARVFESLEDALSDTELSVATTRRHGKYRQEIFSPKEIVSKFAANLAGNRAALVFGREDNGLTTDELSLCRWHATIPSSEEYGSLNLAQAVMVFCYELFTSLGSRTVGGEDRPLAGSAETEPLFEHMERTLMRIGYLNPQNPAHLMRSLRRIFARSELDSREVAILRGMMTQIDWAADQFKGKKGA
- protein production: failed

Sequence: MHVDIELPLGRATALQRLRAQGFCVLTPAALETLTGMPLDAFDMMLPYWEELAPDLHLKDGGHYRYRRHGCFMQTLQPGQLETVQHRAHWQPTTYNALHGGMERWFEPLSNEMIHLPSWSALLVALGELFAKLRAPQGGRWYIEAHPFRIDTEGGVGRPTPEGAHRDGVDFVAVVFIGRQGVRGGETRVFDAAGPQGVRFTLEQPWTVLLLDDQQVIHESTPLLPLDPADPAVPAHRDTLVLTYRSGGFQAPA
- protein production: not failed

Sequence: MTKNNILNNKITKVILFRICFIIAITTALVCGLKLNIINDGFWHIKVGEYIIKNRVIPREDIFSWYGIENKLKWISHEWLFGVIAYLVYKIKGFTSVIIFSTIVNCSTALLVYKFALIRNKNKVVSLIIMWVYIFGDFYDITYRPVLISKLILLCSFILLEKKKYLFALIVLILGVNIHGGIYPLYLMIFAYYTIPFSYKYLIFSLITVLINPYGYNLYKYTYLSMKNIDINRYINEWCITPIYDYKVALIIICITVCICTVSKIKFKDFLFCGALIILAISAKRHVDVIYLFVLPVISLYFNSFYFDFFMKFVSRIKPEKLKSIIPKLNYITCGFLIVVMIVKSSLCIKQYFFDTHFHNFEYITNDSENPIKACNFINSHQEIKNSRTFNDYNSSPYIIFRGIKTFVDSRQDLFTYNFNKTNAFVDQIKALNNYDYMIYVFKKYNIKYAILRNDMPNTRLLRNTDLIYIIYEDRDYSIFQINRNKLKSSNQRGV
- protein production: failed

Sequence: MKRFIIKSDRIGFSIWEETDLKEALELWGNSNVTKYITADGKMSIEDVKTRLKVEIEFYEKYKVQYWPIFLNETSENLGVCGLHPYNIKDSVFELGVHLREKYWGIGVAEKACNLVMRYAFENLQAKAIFVGHNPNNKASKKLIKKLGFTYTHDEFYEPTGLYHPSYLITCNEFIEVKNKLKGGKIIGKNK
- protein production: not failed

Sequence: GEEDWVLPSEVEVLESIYLDELQVIKGNGRTSPWEIYITLHPATAEDQDSQYVCFTLVLQVPAEYPHEVPQISIRNPRGLSDEQIHTILQVLGHVAKAGLGTAMLYELIEKGKEILTDNNIPHGQCVICLYGFQEKEAFTKTPCYHYFHCHCLARY
- protein production: failed

Sequence: MVKNEVLMRVAELLKHRAENLVKHTEFKQWMSPSVREYWDDILNKTQSRPLFGWVKDLHLPANEDTPIPEPIELKPEAQALYDELQTQVGEVIHTGDWLLVDQERINQFGAVTEDMQWIHTNPDRAALESPFKTTIAHGFLTLALLPKLTDSVDEEKTLFPTAKMVVNIGLNSVRFPYPVKAGNRVRAVSTLSKVTPIKKGLEIEREIKVEIEGVRRPGCVVVSVIQLHF
- protein production: failed

Sequence: ADEEESTPCDNVETDQQTFACAAFNKQVAERELQSAYDELIERMRDQFGDEAGLMSRIEAAEKVWSQLRDADCKVETHAEQPGSNAYQIAWNSCIAQRSDERAEYLRSLGSQNSDEPAPED
- protein production: not failed

Sequence: MTGAETGSHFRRHALDAKPIGMSDHEQTKLIATAMNEGSPQAKALGFTTLEIGDAVALLKVPYRPEIIGDPETGVIAGGVVTTLLDHASGQAVHAAMETWTSIATLDLRIDYMRAAEPGLDVMARAHCYKLTRSVAFVRAVAYDRDPEDPIATGQATFMLDSSAGKKAGANLKPSRQQRSKTGGVDQ
- protein production: failed

Sequence: MSGVLLLFIIGFIGSFISGMVGIGGAIINYPMILYIPVLLGFTGYTSHEVSGITAVQVFFATFAGAWAYRKSTDMNKMLVVYMGASILIGSFIGSFSANLLDEHAVNVVYTVLATIAAMMMFVPKKNNSGAVKYNKWLASVLAFIVGGVSGIIGAGGAFLLVPIMLVILKLPLRMTIATSIAITFISSVGITTGKVITGQVVIIPALIIAVASIFAAPLGARVGKRINQKVLQYMLSILIVGTAVKMWIDMILK
- protein production: failed

Sequence: MLPSPSSSSAPTKRIDPSELKRVFQMFDKNGDGRITKEELNDSLENLGIYIPDKDLTQMIHKIDANGDGCVDIDEFESLYSSIVDEHHNDGETEEEDMKDAFNVFDQDGDGFITVEELKSVMASLGLKQGKTLDGCKKMIMQVDADGDGRVNYKEFLQMMKGGGFSSSN
- protein production: not failed

Sequence: MFSFPAVLEAGIVFLYIAVALFLATLGIWIARTFLMPNVIKEDWNSLNRISFTTVIPLSASVMNAAIIAYYGFNVHYEYLYLVNYFIDFTSILFLSFFLGYKLYTKSPVHTNEISYGLLIPPVAISSNVLLGSSLMRTQYFNSIIFLTVIGVGIALFLFLFIGIMTFASYIRDQKANAPSPMLVLPVGVSSIIVINILAIATAKSVFQIPMADALTVSFMLWAFELWNFVVAMMISLKRVFREPATISIWAYTFPMAIFSVSSLDLRSIIGRYGYITASNIVYYIGIGAWVILIVAWVYAVMSTAIFLSHIKMIAYPG
- protein production: failed

Sequence: VMVFISSSLNSFRSEKRYSRSLTIAEFKCKLELVVGSPASCMELELYGADDKFYSKLDQEDALLGSYPVDDGCSIHVIDHSG
- protein production: not failed
